Test results from PMC6033619 (ACS chemical neuroscience, 2018).
Numbering of substitutions follows the chain as printed. *: point of attachment. Cbz = O=C(OCc1ccccc1)*; Boc = CC(C)(C)OC(=O)*

Columns and labels:
[1] = target: T1, FGF14^V160A (aa 64-252) (human) (UniProt Q92915); assay: SPR
T1 sequence: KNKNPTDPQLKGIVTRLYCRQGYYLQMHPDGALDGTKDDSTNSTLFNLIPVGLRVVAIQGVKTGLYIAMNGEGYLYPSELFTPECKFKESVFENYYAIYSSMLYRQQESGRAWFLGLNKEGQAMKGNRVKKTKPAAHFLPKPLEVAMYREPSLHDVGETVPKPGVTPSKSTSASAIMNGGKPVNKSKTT

[2] = target: T2, FGF14^WT (aa 64-252) (human) (UniProt Q92915); assay: SPR
T2 sequence: T1 sequence with A97V

CLuc-FGF14 (human) = CLuc-FGF14 (human) (human, UniProt Q92915 1-247); assay: split reporter

Kd [1]: 182 µM
Kd [2]: 89.6 µM
IC50 (CLuc-FGF14 (human)): 63 µM
B1: ZL181 (Cbz-FLPK(Boc)-CONH2) (peptide)
peptide: Cbz-FLPK(Boc)-NH2
SMILES: CC(C)C[C@H](NC(=O)[C@H](Cc1ccccc1)NC(=O)OCc1ccccc1)C(=O)N1CCC[C@H]1C(=O)N[C@@H](CCCCNC(=O)OC(C)(C)C)C(N)=O
